Target: the molecule itself
Experiment: not stated; oligomeric state of the untagged enzymes; the sentence points to Supplementary Figs. 1 and 2

B1: MenD (2-succinyl-5-enolpyruvyl-6-hydroxy-3-cyclohexadiene-1-carboxylate synthase), untagged (enzyme, E. coli, UniProt P17109 1-556, looked up)
chain: MSVSAFNRRWAAVILEALTRHGVRHICIAPGSRSTPLTLAAAENSAFIHHTHFDERGLGHLALGLAKVSKQPVAVIVTSGTAVANLYPALIEAGLTGEKLILLTADRPPELIDCGANQAIRQPGMFASHPTHSISLPRPTQDIPARWLVSTIDHALGTLHAGGVHINCPFAEPLYGEMDDTGLSWQQRLGDWWQDDKPWLREAPRLESEKQRDWFFWRQKRGVVVAGRMSAEEGKKVALWAQTLGWPLIGDVLSQTGQPLPCADLWLGNAKATSELQQAQIVVQLGSSLTGKRLLQWQASCEPEEYWIVDDIEGRLDPAHHRGRRLIANIADWLELHPAEKRQPWCVEIPRLAEQAMQAVIARRDAFGEAQLAHRICDYLPEQGQLFVGNSLVVRLIDALSQLPAGYPVYSNRGASGIDGLLSTAAGVQRASGKPTLAIVGDLSALYDLNALALLRQVSAPLVLIVVNNNGGQIFSLLPTPQSERERFYLMPQNVHFEHAAAMFELKYHRPQNWQELETAFADAWRTPTTTVIEMVVNDTDGAQTLQQLLAQVSHL
notes: MenD, 2-succinyl-5-enolpyruvyl-6-hydroxy-3-cyclohexadiene-1-carboxylate synthase, E. coli; subunit 63 kDa; 'Untagged' means without RIAD or RIDD; also called untagged MenD; non-tagged enzyme
stoichiometry N: 4
